Reference: article PMC6948721

Legend:
Conditions in all cases: 10 mM Na2HPO4 pH 7.3, 22 °C
[1] = substrate: CC(=CC=C(O)C(=O)O)C(=O)O; experiment: UV steady-state kinetics, enol-keto tautomerization; format: biochemical, Burkholderia lata
[2] = substrate: C=CC=C(O)C(=O)O; experiment: as above; format: biochemical, Burkholderia lata
purified protein [3] = substrate: O=C(O)C=CC=C(O)C(=O)O; experiment: purified protein
purified protein [4] = substrate: O=C(O)C(O)=Cc1ccccc1; experiment: purified protein

| Protein | Km [1] | kcat [1] | kcat/Km [1] | Km [2] | kcat [2] | kcat/Km [2] | Km (purified protein [3]) | kcat (purified protein [3]) | kcat/Km (purified protein [3]) | Km (purified protein [4]) | kcat (purified protein [4]) | kcat/Km (purified protein [4]) |
| --- | --- | --- | --- | --- | --- | --- | --- | --- | --- | --- | --- | --- |
| fused 4-OT (fused 4-oxalocrotonate tautomerase) (Burkholderia lata) (protein) PTLEVFLPAGHDDARKAELIARLTGATVDSIGAPIESVRVLLTELPATHIGLGGRSAADGAPPSLPVIVAILIAGRTDEQKRALIAALSETSASVLDAPLQATRVMIKDIPNTDFGIGGQTARALGR | 147 ± 9 µM | 72 ± 2 s⁻¹ | 490000 M⁻¹ s⁻¹ | 1330 ± 140 µM | 170 ± 12 s⁻¹ | 130000 M⁻¹ s⁻¹ |  |  |  |  |  |  |
| unfused 4-OT (Burkholderia lata) (protein) chain 1: PTLEVFLPAGHDDARKAELIARLTGATVDSIGAPIESVRVLLTELPATHIGLGGRSAADGAPPSL chain 2: PVIVAILIAGRTDEQKRALIAALSETSASVLDAPLQATRVMIKDIPNTDFGIGGQTARALGR |  |  |  |  |  |  | 148 ± 18 µM | 105 ± 6 s⁻¹ | 710000 M⁻¹ s⁻¹ | 346 ± 28 µM | 19.3 ± 0.7 s⁻¹ | 56000 M⁻¹ s⁻¹ |
